{"source": "patent US20090264359A1", "about": "“FPLR-1 INHIBITORS FOR USE IN DISEASES INVOLVING AMYLOID-INDUCED INFLAMMATORY EVENTS (FLIPR AND FLIPR-LIKE) AND IMMUNECOMPLEX-[…] DISEASES” (published 2009)", "binders": {"B1": {"name": "FLIPr-like (other)", "chain": "FFSYEWKGLEIAKNLADQAKKDDERADKLIKEADEKNEHYKGKTVEDLYVIAKKMGKGNTIAVVKIKDGGKNGYYTFDITRPLEEHRKNIPVVKNGEIDSITWY", "modifications": "FITC label in the flow cytometric binding assays (FLIPr-like-FITC); unlabelled elsewhere"}}, "key": {"[1]": {"molecular_target": "FcγRs on human neutrophils and peripheral blood monocytes"}, "[2]": {"molecular_target": "FPR on human neutrophils and monocytes (human, UniProt P21462)", "assay": "cell-based or functional assay"}}, "data": [{"binder": "B1", "values": [{"measurement": "minimal effective concentration in phagocytosis by human neutrophils", "setting": "[1]", "value": 0.19, "unit": "µg/mL"}, {"measurement": "FPR blocking activity (fMLF-induced activation of neutrophils)", "setting": "[2]", "value": "~100", "unit": "fold"}]}]}
